Results from patent US20220324962A1.

Experiments:
[1] = target: full-length human MISRII (human) (UniProt Q16671); assay: cell-based or functional assay
[2] = target: active recombinant MIS (LRMIS) (human) (UniProt P03971); assay: cell-based or functional assay
[3] = target: active recombinant MIS (LRMIS) (human) (UniProt P03971); assay: sandwich ELISA: recombinant AMH (25 nM) captured on coated polyclonal anti-AMH, B10 titrated 666-0 nM, detected with anti-mouse Fc HRP

UniProt P03971, sequence (P03971 26-560): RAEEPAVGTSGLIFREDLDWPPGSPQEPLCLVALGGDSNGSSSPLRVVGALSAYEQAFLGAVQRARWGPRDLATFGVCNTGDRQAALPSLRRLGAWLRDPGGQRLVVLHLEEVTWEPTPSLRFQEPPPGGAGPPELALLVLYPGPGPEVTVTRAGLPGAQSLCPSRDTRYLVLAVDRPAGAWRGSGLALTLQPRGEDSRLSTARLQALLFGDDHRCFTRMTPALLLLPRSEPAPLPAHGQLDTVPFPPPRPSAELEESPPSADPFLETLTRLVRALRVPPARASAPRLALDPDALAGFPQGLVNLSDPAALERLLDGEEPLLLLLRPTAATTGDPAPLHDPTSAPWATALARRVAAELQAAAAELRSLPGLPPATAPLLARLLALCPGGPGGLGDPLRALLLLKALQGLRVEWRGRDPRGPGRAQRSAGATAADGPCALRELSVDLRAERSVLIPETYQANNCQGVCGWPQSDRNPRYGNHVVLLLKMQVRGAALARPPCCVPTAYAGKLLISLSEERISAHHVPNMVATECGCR
UniProt Q16671, sequence (Q16671 18-573): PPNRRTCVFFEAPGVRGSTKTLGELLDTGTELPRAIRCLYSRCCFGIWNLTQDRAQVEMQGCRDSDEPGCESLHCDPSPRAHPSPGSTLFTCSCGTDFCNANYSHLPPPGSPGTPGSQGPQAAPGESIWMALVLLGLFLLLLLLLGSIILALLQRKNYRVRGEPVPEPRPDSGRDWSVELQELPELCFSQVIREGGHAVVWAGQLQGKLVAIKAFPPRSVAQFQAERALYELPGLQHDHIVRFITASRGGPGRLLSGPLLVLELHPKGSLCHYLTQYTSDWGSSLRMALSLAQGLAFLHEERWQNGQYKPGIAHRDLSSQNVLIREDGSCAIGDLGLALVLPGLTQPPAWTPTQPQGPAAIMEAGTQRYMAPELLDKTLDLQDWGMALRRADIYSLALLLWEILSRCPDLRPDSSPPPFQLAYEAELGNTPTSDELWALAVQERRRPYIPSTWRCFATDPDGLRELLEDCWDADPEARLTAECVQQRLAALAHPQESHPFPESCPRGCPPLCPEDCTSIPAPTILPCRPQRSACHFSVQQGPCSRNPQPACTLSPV

Molecule: active recombinant MIS (LRMIS) (from UniProt P03971 26-560) (ligand)
- Apoptosis, evaluated by measuring caspase-3/7 activity (COV434-MISRII cells) [1]: 12.5 nM
- Apoptosis, evaluated by measuring caspase-3/7 activity (SKOV3-MISRII cells) [1]: 6.3 nM

B1: anti-MIS antibody B10 (antibody, V domains shown)
VH: EVQLVESGGSLVKPGGSLRLSCAASGFTFSNYNMNWVRQAPGKGLEWISDINGSSRSIYYADFVKGRFTISRDNATNSLYLQMNSLRAEDTAVYYCVRSSYYGGGMDVWGRGTLVTVSS
VL: QSVLTQPASVSGSPGQSITISCAGTSSDVGGYNYVSWYQQHPGKAPKLMIYYDSYRPSGVSNRFSGSKSGNTASLTISGLQAEDEADYYCSSYTDYSTRVFGGGTKLAVLG
- decrease in Caspase-3/7 activity induced by 25 nM MIS (fold change relative to untreated cells) [2]: 40%
- EC50 [3]: 50.4 nM
